7 molecules from patent US20210032330A1 can be followed below.

First the molecules themselves.
B1: anti-TIM-3 monoclonal antibody 6-I13-A (antibody, V domains shown)
VH: EVQLQQSGPELEKPGASVKISCKASGYSFTGYNMNWVKQSNGKSLEWIGNIDPYYGVTSYNQKFKGKATLTVDKSSSTAYMQLKSLTSEDSAVYYCASYSLTYDGYYPFAYWGQGTLVTVSA
VL: DIVLTQSPASLAVSLGQRATISCRASKSVSTSGYSYMHWYQQKPGQPPKLLIYLASNLESGVPARFSGSGSGTDFTLNIHPVEEEDAATYYCQHSRELPYTFGGGTKLEIK
B2: anti-TIM-3 monoclonal antibody 10-O15-A (antibody, V domains shown)
VH: QVQLQQSGADLVRPGASVKLSCKALGYTFTDYEMHWVKQTPVHGLEWIGAIHPGSGGTAYNQKFKGKATLTADKSSSTAYMELSSLTSEDSAVYFCSRSYYRYTGYFDVWGAGTTVTVSS
VL: DIVLTQSPASLAVSLGQRATISCRASKSVSASGYSYMHWYQQKPGQPPKLLIYLASNLESGVPARFSGSGSGTDFTLNVHPVEEEDAATYYCQHSRELPFTFGSGTKLEIK
B3: anti-TIM-3 monoclonal antibody 16-K5-A (antibody, V domains shown)
VH: QVQLQQSGAELVKPGASVKLSCKASGYTFTSSDINWVRQRPEQGLEWIGWIFPGDGSTKYNEKFKGKATLTTDKSSSTAYMQLSRLTSEDSAVYFCARGLDYWGQGTTLTVSS
VL: DIKMTQSPSSMYASLGERVTITCKASQDINSYLGWFQQKPGKSPKTLIYRADRLVDGVPSRFSGSGSGQDYSLTISSLEYEDMGIYYCLQYDEFPLTFGAGTKLELK
B4: anti-TIM-3 monoclonal antibody 18-N1-A (antibody, V domains shown)
VH: QVQLQQPGAELVRPGVSVKLSCKASGYTFTSYWMHWIKQRPEQGLERIGEINPSNGGTNYNEKFKNKATLTVDKSSSTAYMQLSSLTSEDSAVYYCARSYYTYDAIDYWGQGTSVTVSS
VL: DIVMSQSPSSLAVSAGEKVTMSCKSSQSLLNSRTRKNYLAWYQQKPGQSPKLLIYWASTRESGVPDRFTGSGSGTDFTLTISSVQAEDLAVYYCKQSYNLYTFGGGTKLEIK
B5: anti-TIM-3 monoclonal antibody 5-K4-A (antibody, V domains shown)
VH: EVQLQQSGPELVKTGASVKISCKASGYSFTAYYIHWVKQSHGKSLEWIGHISCFNGATSYNQKFKGKATFTVDTSSSTAYMQFNSLTSEDSAVYYCARRGDFDRPEFAYWGQGTLVTVSA
VL: DIVLTQSPASLAVSLGQRATISCRASESVEYYGTSLMQWYQQKPGQPPKLLIYAASNVESGVPARFSGSGSGTDFSLNIHPVEEDDIAMYFCQQSRKVPWTFGGGTKLEIK
B6: anti-TIM-3 monoclonal antibody 10-M21-A (antibody, V domains shown)
VH: DVQLQESGPTLVKPSQTLSLTCSVTGDSITSGYWNWIRKFPGNKLEYMGYISYSGSTYYNPSLKSRISIIRDTSKNQYYLQLNSVTTEDTATYYCVSGNHFDYWGQGTTLTVSS
VL: DIQMTQSPSSLSASLGGKVTITCKASQDINRYIAWYQHKPGKGPRLLIHYTSTLQPGIPSRFSGSGSGRDYSFSISNLEPEDIATYYCLQYDNLLFTFGSGTKLEIK
B7: anti-TIM-3 monoclonal antibody 16-L3-A (antibody, V domains shown)
VH: QVQLQQSGPELVKPGASVKMSCKASGYTFTSYYIHWVKQRPGQGLEWIGWIYPGDGSTKYNEKFKGKTTLTADKSSSTAYMLLSSLTSEDSAIYFCATDRYDVAYWGQGTLVTVSA
VL: EIVLTQSPALMAASPGEKVTITCSVSSSISSSNLHWYQQKSETSPKPWIYGTSNLASGVPVRFSGSGSGTSYSLTISSMEAEDAATYYCQQWSSYPLTFGAGTKLELK

For the experiment, the target named is cynomolgus TIM-3 (cynomolgus). Kind of experiment: BLI (OCTET Red96), mAb on anti-mouse Fc biosensor, antigen in solution, 1:1 model.
Regarding B1, the Kd was 5.2 nM.

For B2, the Kd came to 2.9 nM.

B3 displayed a Kd of 6.4 nM. This Kd lies about 2.2-fold higher than the previous one.

The molecule B4 returned a Kd of 14 nM. Compared with the last molecule, the Kd is about 2.2-fold higher.

B5 yielded a Kd of 6.7 nM. This Kd lies about 2.1-fold lower than the previous one.

B6 displayed a Kd of 7.5 nM.

As for B7, the Kd turned out to be 6.5 nM. This Kd and that of the molecule before are within 1.5-fold of each other.

In general, Kd refers to a measure of binding affinity in units of concentration. Low readings indicate higher affinity, high ones lower affinity.
